Here are results for 15 molecules from paper PMC10941009, “Structural basis for specific DNA sequence recognition by the transcription factor NFIL3” (The Journal of Biological Chemistry, 2024).

Series [1] concerns the target T1, NFIL3 bZIP (long) (human, UniProt Q16649 65-161).
T1 sequence: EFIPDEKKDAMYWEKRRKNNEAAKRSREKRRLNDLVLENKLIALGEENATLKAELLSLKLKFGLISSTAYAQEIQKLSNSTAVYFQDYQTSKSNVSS
Nature of the series: ITC; ITC: 20 mM Tris pH 7.5, 150 mM NaCl, 25 °C; EMSA: same buffer, 4 °C, 6% native gel in 0.5x TBE. To be noted: protein: recombinant, tags: His6-SUMO removed by TEV, chain copies: 2, blunt. (ITC needs no label: the signal is the heat of the interaction.)

Series [2] has as its target C/EBPα bZIP (human, UniProt P49715 281-340). The series is described as above. To be noted: protein: recombinant; tags: His6-SUMO removed by TEV; chain copies: 2; blunt.
Series [3] addresses C/EBPζ bZIP (human, UniProt P35638 88-162). Described as above. To be noted: protein: recombinant; tags: His6-SUMO removed by TEV; chain copies: 2; blunt.
The target of series [4] is C/EBPβ bZIP (human, UniProt P17676 259-336). The series is described as above. Conditions: protein: recombinant; tags: His6-SUMO removed by TEV; chain copies: 2; blunt.
The target in series [5] is T2, NFIL3 bZIP (short) (human, UniProt Q16649 65-136).
T2 sequence: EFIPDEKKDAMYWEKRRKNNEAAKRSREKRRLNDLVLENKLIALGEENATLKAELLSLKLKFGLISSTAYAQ
The series is described as above. To be noted: protein: recombinant; tags: His6-SUMO removed by TEV; chain copies: 2; blunt.

Series [6] concerns the molecule itself. Nature of the series: SEC; gel filtration chromatography of the recombinant C/EBPζ bZIP domain; conditions not told for this protein. A general note: Size exclusion chromatography separates by hydrodynamic size, large species first.
Series [7] deals with the molecule itself. Nature of the series: SEC; Superdex 200 10/300 GL, 20 mM Tris pH 7.5, 150 mM NaCl; NFIL3 bZIP domain WT 2 mg/ml apo and NFIL3 mutants, against protein standard.

The term Kd denotes the constant that tells how readily two partners part at equilibrium. By stoichiometry N is commonly meant the number of molecules, sites or subunits per partner or assembly.

Chain of C/EBPα bZIP (P49715 281-340): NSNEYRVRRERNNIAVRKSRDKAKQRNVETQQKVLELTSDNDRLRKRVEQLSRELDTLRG
Chain of C/EBPβ bZIP (P17676 259-336): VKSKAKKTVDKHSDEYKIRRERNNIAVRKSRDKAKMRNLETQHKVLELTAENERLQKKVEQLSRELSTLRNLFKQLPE

B1: TTAtGTAA (dsDNA)
DNA 1: CATTATGTAATG
DNA 2: CATTACATAATG
Consider B1, for which the Kd in series [1] stood at 520 ± 30 nM.

B2: TTACGTAA (dsDNA)
DNA 1: CATTACGTAATG
DNA 2: CATTACGTAATG
With B2, the Kd in series [2] was 350 ± 30 nM; in series [1] it was 42 ± 7 nM; in series [4] it was 18 ± 3 nM; in series [5], 52 ± 17 nM. Moreover, the binding result in series [3] is on record as “no binding”.

B3: TTAaGTAA (dsDNA)
DNA 1: CATTAAGTAATG
DNA 2: CATTACTTAATG
Regarding B3, in series [1], the Kd came to 120 ± 10 nM.

B4: TGATGTAA (dsDNA)
DNA 1: GATGATGTAATC
DNA 2: GATTACATCATC
As to B4, the binding result in series [3] is reported as “no binding”.

B5: mutated flanking DNA (dsDNA)
DNA 1: CGTTACGTAATG
DNA 2: CATTACGTAACG
As for B5, the Kd in series [1] was 67 ± 14 nM.

B6: TcACGTAA (dsDNA)
DNA 1: CATCACGTAATG
DNA 2: CATTACGTGATG
Take B6: the Kd in series [1] was found to be 1660 ± 110 nM.

B7: C/EBPζ bZIP domain (aa 88-162) (domain or fragment, human, UniProt P35638 88-162, looked up)
chain: SSLAQEEEEEDQGRTRKRKQSGHSPARAGKQRMKEKEQENERKVAQLAEENERLKQEIERLTREVEATRRALIDR
notes: human C/EBPζ, bZIP domain, residues 88-162; source: E. coli BL21 (DE3), purified (Ni-NTA, TEV, anion exchange, gel filtration); not shown: His6, N-terminal, cleaved; SUMO, N-terminal, cleaved
Turning to B7, in series [6], the “stoichiometry N” value came out at 2.

B8: cTACGTAA (dsDNA)
DNA 1: CACTACGTAATG
DNA 2: CATTACGTAGTG
Consider B8, for which the Kd in series [1] turned out to be 2430 ± 150 nM.

B9: ccgCGTAA (dsDNA)
DNA 1: CACCGCGTAATG
DNA 2: CATTACGCGGTG
In the case of B9, the Kd in series [1] amounted to 6890 ± 340 nM.

B10: TTGCGCAA (dsDNA)
DNA 1: CATTGCGCAATG
DNA 2: CATTGCGCAATG
Turning to B10, the dissociation constant (Kd) was 480 ± 70 nM in series [2], 810 ± 70 nM in series [1] and 69 ± 9 nM in series [4]. Moreover, the binding result in series [3] is listed as “no binding”.

B11: NFIL3 bZIP domain (aa 65-161) (domain or fragment, human, UniProt Q16649 65-161, looked up)
chain: EFIPDEKKDAMYWEKRRKNNEAAKRSREKRRLNDLVLENKLIALGEENATLKAELLSLKLKFGLISSTAYAQEIQKLSNSTAVYFQDYQTSKSNVSS
notes: human NFIL3, bZIP domain, residues 65-161 (canonical bZIP helix aa 73-126 and an extra short helix aa 131-146); The methods of the size-exclusion run say only 'NFIL3 bZIP domain WT'; also called E4BP4; nuclear factor interleukin-3 regulated protein; source: E. coli BL21 (DE3), purified (Ni-NTA, TEV, anion exchange, gel filtration); not shown: His6, N-terminal, cleaved; SUMO, N-terminal, cleaved
Take B11: the “stoichiometry N” value in series [7] is 2.

B12: NFIL3 bZIP domain N112D mutant (domain or fragment, human, UniProt Q16649 65-161, looked up)
chain: EFIPDEKKDAMYWEKRRKNNEAAKRSREKRRLNDLVLENKLIALGEEDATLKAELLSLKLKFGLISSTAYAQEIQKLSNSTAVYFQDYQTSKSNVSS
notes: human NFIL3, bZIP domain, residues 65-161 with N112D; also called NFIL3 (N112D); source: E. coli BL21 (DE3), purified as the wild-type protein; not shown: His6, N-terminal, cleaved; SUMO, N-terminal, cleaved
Take B12: the “stoichiometry N” value in series [7] was determined as 2.

B13: TTAmCGTAA (dsDNA)
DNA 1: CATTACGTAATG
DNA 2: CATTACGTAATG
modifications: 5-methyl-C at position 6 of the printed strand; second strand not printed (palindrome, methylation of it not stated)
Take B13: the Kd in series [1] turned out to be 590 ± 89 nM.

B14: TTgCGTAA (dsDNA)
DNA 1: CATTGCGTAATG
DNA 2: CATTACGCAATG
Consider B14, for which the Kd in series [1] stood at 180 ± 20 nM.

B15: T/G mismatch TTAt (dsDNA)
DNA 1: CATTATGTAATG
DNA 2: CATTACGTAATG
modifications: T/G mismatch at position 6 of strand 1
Consider B15, for which the Kd in series [1] (one T/G mismatch) was 290 ± 30 nM.
